Results on four molecules are retold here after patent publication US20170166894A1, “APTAMERS FOR TOPICAL DELIVERY” (GlaxoSmithKline Intellectual Property Development Limited, published 2017).

For data set [1], the target named is T1, IL-23 (p40/p19 heterodimer), endogenous from activated monocytes (Homo sapiens, UniProt P29460;Q9NPF7 SEQ:23-328,SEQ:20-189). Briefly: cell_activity; STAT3 inhibition assay; compensatory pair restores activity; IL-23 source not stated for this assay.
Data set [2] concerns the target T1, IL-23 (p40/p19 heterodimer), endogenous …. The data set is described as follows: cell_activity; STAT3 inhibition assay; disrupts G2-C30 loop-tail tertiary contact; IL-23 source not stated for this assay.
Data set [3] shares this target. The data set is described as follows: cell_activity; phospho-STAT3 ELISA in PHA/IL-2 T-cells, seven titrations; a separate comparison with ARC20122 gave 0.075±0.030 nM (p832). The protocol: (§1) The ability of ARC32225 to inhibit endogenous IL-23 activation of PHA/IL-2 activated T-cells was tested by measuring levels of phospho-STAT3 (“phospho-STAT3 assay”). The binding of IL-23 to its receptor on activated T-cells stimulates several STAT pathways, including STAT3. Peripheral Blood Mononuclear Cells (PBMC) from fresh human blood were isolated by centrifugation in a Histopaque gradient and treated with PHA/IL-2 to enrich for T-cells and to upregulate IL-23 receptors. Cells were serum starved and treated with endogenous IL-23 for 15 minutes, and then lysed. Relative levels of phospho-STAT3 in IL-23 treated lysates, in the presence and absence of ARC32225 or a neutralizing p19 antibody, were measured by ELISA (Cell Signaling Technologies, Danvers, Mass.). Titrations of aptamer/antibody were used to generate inhibition curves from which IC₅₀ determinations were made.
Percent inhibition was recorded for each concentration tested for all donors (data not shown). Individual IC50 for each donor were also recorded (data not shown).
A general note: An ELISA detects its analyte on a solid surface through an enzyme-linked reagent.

Data set [4] shares this target. The data set is described as follows: cell_activity; STAT3 activation in PHA blasts, endogenous IL-23. The protocol:
Additionally, the ability of ARC20122 as well as its minimer ARC32225 to inhibit IL-23 dependent stimulation of STAT3 activity in PHA-Blast cells was tested. This assay utilized endogenous IL-23 produced from purified monocytes as described herein. […] ARC32225 performed slightly better than its parent clone with an IC₅₀ of 0.075 nM±0.030 nM. In both cases, the activity was markedly better than the control anti-p19 antibody, IC₅₀=0.69 nM±0.12 nM.
as §1

In data set [5] the target is IL-23 (p40/p19 heterodimer), recombinant human (Homo sapiens, UniProt P29460;Q9NPF7 SEQ:23-328,SEQ:20-189). Briefly: in presence of competitor tRNA (18,000-fold excess). The settings on record: tags: R&D Systems 1290-IL-010/CF (catalogue number stated for the selection).

Residue numbers refer to the chain shown, from its start. In names and notes the source's numbering stands.

T1 sequence (P29460 23-328, chain 1 of 2): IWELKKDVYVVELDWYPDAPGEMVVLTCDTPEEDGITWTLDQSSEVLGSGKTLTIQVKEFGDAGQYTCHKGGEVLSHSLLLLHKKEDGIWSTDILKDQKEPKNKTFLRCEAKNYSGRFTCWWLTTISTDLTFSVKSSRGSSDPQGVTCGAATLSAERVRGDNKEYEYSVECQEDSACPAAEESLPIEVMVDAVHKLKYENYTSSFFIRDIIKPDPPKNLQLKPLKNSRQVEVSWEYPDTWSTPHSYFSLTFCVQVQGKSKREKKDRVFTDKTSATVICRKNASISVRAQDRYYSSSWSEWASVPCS
T1 sequence (Q9NPF7 20-189, chain 2 of 2): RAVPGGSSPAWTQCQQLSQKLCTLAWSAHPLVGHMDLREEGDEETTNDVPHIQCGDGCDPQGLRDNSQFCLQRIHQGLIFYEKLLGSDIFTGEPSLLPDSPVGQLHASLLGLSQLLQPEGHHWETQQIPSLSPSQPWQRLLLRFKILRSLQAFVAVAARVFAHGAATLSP
Chain of IL-23 (p40/p19 heterodimer), recombinant human (P29460 23-328, chain 1 of 2): as the sequence (P29460 23-328, chain 1 of 2) above
Chain of IL-23 (p40/p19 heterodimer), recombinant human (Q9NPF7 20-189, chain 2 of 2): as the sequence (Q9NPF7 20-189, chain 2 of 2) above

B1: ARC32225 G2A/C30U (ssRNA)
RNA: AAGGAAAUCAGGCUUUAUCGGGCGCCGCUUCCUGUGCCAUCGUCCGAGAGUAGGUAGUCUGU
modifications: mixed 2'-OMe and 2'-F as parent [mixed 2'-OMe and 2'-F as parent (positions not given)]
With B1, the IC50 in data set [1] was determined as 0.5 nM.

B2: ARC32225 G2A (ssRNA)
RNA: B1 RNA with U30C
modifications: mixed 2'-OMe and 2'-F as parent [mixed 2'-OMe and 2'-F as parent (positions not given)]
In data set [2], B2 gave an IC50 of 108 nM.

B3: ARC32225 (ssRNA)
RNA: AGGGAAAUCAGGCUUUAUCGGGCGCCGCUCCCUGUGCCAUCGUCCGAGAGUAGGUAGUCUG
modifications: mixed 2'-OMe and 2'-F as printed (10 mA, 1 fA, 14 mG, 6 fG, 3 mC, 13 fC, 1 mU, 13 fU); 3' idT
Turning to B3, inhibition in data set [3] was half-maximal at 0.296 nM (IC50).

B4: ARC20122 (ssRNA)
RNA: GGAGGGAAAAGUUAUCAGGCUUCUAUCGGGCGCCGCGUUUUCCCUGUGUUAGCCAUCGUCCGACGAGUAGGCUAGUCUGAUGCC
modifications: 2'-OMe A and G, 2'-F C and U (mA,mG,fC,fU)
The molecule B4 came in with an IC50 in data set [4] of 0.26 nM. In addition, the Kd in data set [5] was 9.1 nM.

The term IC50 denotes the concentration at which inhibition is half-maximal. Read a low IC50 as higher potency. In general, Kd refers to the concentration at which binding is half-saturated.
